Results taken from the RNAGym collection of RNA variant scans (doi:10.1021/acssynbio.7b00057).

B1: Pistol ribozyme (parent)
chain: GGGUCGUUGUUCCAUAAUCGCGUGGAUAUGGCACGCAAGUUUCUACCGGGCACCGUAAAUGUCCGACUGGAGCCGUUCGGGCGGCUAUAAACAGACCUCAGGCCCGAAGCGUGGCGGCACCUGCCGCCGGUGGUAAAAAAGAUCGGAAGAGCACACGUCU

Variants of: B1
Assay: aptazyme ON/OFF ratio, guanine; higher = stronger switching; co-transcriptional cleavage with and without guanine

Variant | aptazyme ON/OFF ratio
U7C U8A G9C U10G U11G C12U C13A | 1.12
U7C U8A G9C U10G U11G C12U C13U | 1.09
U7C U8A G9C U10G U11G C12U C13G | 1.1
U7C U8A G9U U10A | 1.16
U7C U8A G9U U10G | 1.26
U7C U8A G9U U10C | 3.35
U7C U8A G9C U10G C13G | 1.11
U7C U8A G9C U10G C13A | 1.15
U7C U8A G9C U10G C13U | 1.35
U7C U8A G9C U10G U11A C13U | 1.04
U7C U8A G9C U10G U11A C13A | 1.08
U7C U8A G9C U10G U11A C13G | 1.11
U7C U8A G9U U10A U11C C13G | 1.05
U7C U8A G9U U10A U11C C13U | 1.06
U7C U8A G9U U10A U11C C13A | 1.07
U7C U8A G9U U10A U11G | 1.36
U7C U8A G9U U10A U11C | 1.05
U7C U8A G9U U10A U11A | 1.38
U7C U8A G9C U11G C12A C13G | 1.15
U7C U8A G9C U11G C12A C13U | 1.15
U7C U8A G9C U11G C12A C13A | 1.13

Variant | aptazyme ON/OFF ratio
U7C U8A G9U U10A C12U C13A | 1.24
U7C U8A G9U U10A C12U C13U | 1.19
U7C U8A G9U U10A C12U C13G | 1.16
U7C U8A G9C U11C C12G C13G | 1.12
U7C U8A G9C U11C C12G C13A | 1.07
U7C U8A G9C U11C C12G C13U | 1.1
U7C U8A G9C U10C U11A C12G C13A | 1.1
U7C U8A G9C U10C U11A C12G C13G | 1.1
U7C U8A G9C U10C U11A C12G C13U | 1.12
U7C U8A G9U U10A U11G C12U C13G | 1.16
U7C U8A G9U U10A U11G C12U C13U | 1.31
U7C U8A G9U U10A U11G C12U C13A | 1.16
U7C U8A G9U U10C U11C C12A C13G | 1.29
U7C U8A G9U U10C U11C C12A C13A | 1.06
U7C U8A G9U U10C U11C C12A C13U | 1.12
U7C U8A G9U U10A U11A C12G C13U | 1.28
U7C U8A G9U U10A U11A C12G C13G | 1.2
U7C U8A G9U U10A U11A C12G C13A | 1.08
U7C U8A G9C U11A C12A C13U | 1.15
U7C U8A G9C U11A C12A C13G | 1.08
U7C U8A G9C U11A C12A C13A | 1.11

Variant | aptazyme ON/OFF ratio
U7C U8A G9C U10G U11C C12G | 1.18
U7C U8A G9C U10G U11C C12U | 1.24
U7C U8A G9C U10G U11C C12A | 1.29
U7C U8A G9U U10A U11G C13G | 1.03
U7C U8A G9U U10A U11G C13A | 1.16
U7C U8A G9U U10A U11G C13U | 1.17
U7C U8A G9U U10C U11A C12A | 1.13
U7C U8A G9U U10C U11A C12G | 1.12
U7C U8A G9U U10C U11A C12U | 1.12
U7C U8A G9C U10C U11C | 1.01
U7C U8A G9C U10C U11G | 0.891
U7C U8A G9C U10C U11A | 0.786
U7C U8A G9C U10C U11C C12U | 1.02
U7C U8A G9C U10C U11C C12G | 1.04
U7C U8A G9C U10C U11C C12A | 1.06
U7C U8A G9C U10G U11C C12U C13G | 1.27
U7C U8A G9C U10G U11C C12U C13A | 1.19
U7C U8A G9C U10G U11C C12U C13U | 1.34
U7C U8A G9C U10C U11A C13U | 1.13
U7C U8A G9C U10C U11A C13G | 1.2
U7C U8A G9C U10C U11A C13A | 1.09

Variant | aptazyme ON/OFF ratio
U7C U8A G9U U10C U11G C12U | 1.21
U7C U8A G9U U10C U11G C12G | 1.11
U7C U8A G9U U10C U11G C12A | 1.07
U7C U8A G9C U10G C12A C13G | 1.09
U7C U8A G9C U10G C12A C13U | 1.13
U7C U8A G9C U10G C12A C13A | 1.23
U7C U8A G9U U10A U11C C12U C13U | 1.21
U7C U8A G9U U10A U11C C12U C13G | 1.13
U7C U8A G9U U10A U11C C12U C13A | 1.14
U7C U8A G9U U10C U11A C13G | 1.07
U7C U8A G9U U10C U11A C13A | 1.15
U7C U8A G9U U10C U11A C13U | 1.17
U7C U8A G9U U10C U11C C12G C13U | 1.07
U7C U8A G9U U10C U11C C12G C13A | 1.09
U7C U8A G9U U10C U11C C12G C13G | 1.11
U7C U8A G9C U11A C13U | 1.13
U7C U8A G9C U11A C13A | 1.11
U7C U8A G9C U11A C13G | 1.06
U7C U8A G9U C12G C13A | 1.21
U7C U8A G9U C12G C13U | 1.22
U7C U8A G9U C12G C13G | 1.21
